The source of these data is patent US6468985B1, “Retinoblastoma protein-interacting zinc finger proteins” (The Burnham Institute, priority 1994, dated 2002).

One experiment has as its target T1, p56EERb (Homo sapiens, UniProt P06400).
T1 construct: p56 Rb: 56 kD fragment of Rb from a.a. position 379-928; made in house; host or cells: E. coli BL21(DE3)pLysS
T1 sequence (P06400 379-928): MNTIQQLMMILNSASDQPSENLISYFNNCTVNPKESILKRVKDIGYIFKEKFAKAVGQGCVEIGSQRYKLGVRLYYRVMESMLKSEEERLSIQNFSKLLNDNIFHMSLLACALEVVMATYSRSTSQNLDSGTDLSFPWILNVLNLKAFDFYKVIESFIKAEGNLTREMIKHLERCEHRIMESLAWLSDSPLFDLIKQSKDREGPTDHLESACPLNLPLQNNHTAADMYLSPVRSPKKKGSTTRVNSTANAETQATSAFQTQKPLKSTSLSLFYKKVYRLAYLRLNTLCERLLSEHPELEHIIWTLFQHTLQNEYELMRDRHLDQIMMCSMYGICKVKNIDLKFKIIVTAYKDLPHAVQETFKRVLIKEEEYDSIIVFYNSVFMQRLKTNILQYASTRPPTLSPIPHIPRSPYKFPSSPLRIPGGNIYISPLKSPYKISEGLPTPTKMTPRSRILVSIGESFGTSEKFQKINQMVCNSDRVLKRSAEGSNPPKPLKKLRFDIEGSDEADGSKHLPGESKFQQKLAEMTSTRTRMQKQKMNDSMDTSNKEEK
The experiment in a line: cDNA expression library filter screening with p56EERb, binding-specificity control. The settings on record: p56EERb preincubated with 5 μM poly-L-lysine or 50 μM T- or K-peptide. How it is done: A rat RIZ cDNA was obtained from a rat neonatal cardiac myocyte λgt11 cDNA expression library (Zhu et al., Mol. Cell Biol., 13:4432 (1993), which is incorporated herein by reference). The library was screened using a 56 kD fragment containing the pocket binding site of Rb and the EE epitope (p56EERb) according to previously described methods (Macgregor et al., Oncogene, 5:451-458 (1991), which is incorporated herein by reference).
For binding-specificity control, p56EERb was preincubated with 5 μM poly-L-lysine (Sigma) or 50 μM T- or K-peptide (Huang et al., supra, 1991) before applying onto filters. T peptide is an 18 residue synthetic peptide derived from residues 101-118 of SV40 large T antigen, while K peptide is the same as T peptide except for a lysine residue substituted for a glutamic acid residue at position 107 of SV40 large T antigen (Huang et al., supra, 1991).
The binding of p56EERb to a clone expressing a RIZ protein was detected using an anti-EE monoclonal antibody obtained as spent culture medium of the anti-EE hybridoma (Walter, supra, 1986) and an alkaline phosphatase conjugated goat anti-mouse IgG antibody specific for mouse immunoglobulin (Promega; Madison Wis.).

The next experiment deals with T2, RIZ (Rattus norvegicus, UniProt Q63755).
T2 construct: made in house; host or cells: in vitro transcription/translation (rabbit reticulocyte lysate)
T2 sequence (Q63755 1-318): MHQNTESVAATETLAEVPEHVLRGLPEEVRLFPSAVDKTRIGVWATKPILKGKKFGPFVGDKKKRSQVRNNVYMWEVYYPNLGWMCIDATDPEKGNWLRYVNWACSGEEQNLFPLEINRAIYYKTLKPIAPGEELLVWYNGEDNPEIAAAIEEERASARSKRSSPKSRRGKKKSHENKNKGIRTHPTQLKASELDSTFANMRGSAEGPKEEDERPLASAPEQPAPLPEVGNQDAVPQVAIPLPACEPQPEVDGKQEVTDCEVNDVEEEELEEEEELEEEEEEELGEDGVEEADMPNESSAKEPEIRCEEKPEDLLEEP
Briefly: binding of anti-RIZ antiserum / anti-ce1 antibody to RIZ and RIZ truncation mutants.

The target of a further experiment is E1A 12S (Human adenovirus C serotype 5, UniProt P03255).
The target in experiment [1] is 35S-labeled full length RIZ (rat, UniProt Q63755 1-1706, 35S label). Briefly: GST fusion protein with in vitro translated labeled protein.
In experiment [2] the target is T3, hypophosphorylated Rb (pRb) from HT1080 cell extract (UniProt P06400 2-928, hypophosphorylated form).
T3 construct: Endogenous protein in a cell lysate; also called Rb from HT1080 cells; fastest migrating forms of Rb
T3 sequence (looked up): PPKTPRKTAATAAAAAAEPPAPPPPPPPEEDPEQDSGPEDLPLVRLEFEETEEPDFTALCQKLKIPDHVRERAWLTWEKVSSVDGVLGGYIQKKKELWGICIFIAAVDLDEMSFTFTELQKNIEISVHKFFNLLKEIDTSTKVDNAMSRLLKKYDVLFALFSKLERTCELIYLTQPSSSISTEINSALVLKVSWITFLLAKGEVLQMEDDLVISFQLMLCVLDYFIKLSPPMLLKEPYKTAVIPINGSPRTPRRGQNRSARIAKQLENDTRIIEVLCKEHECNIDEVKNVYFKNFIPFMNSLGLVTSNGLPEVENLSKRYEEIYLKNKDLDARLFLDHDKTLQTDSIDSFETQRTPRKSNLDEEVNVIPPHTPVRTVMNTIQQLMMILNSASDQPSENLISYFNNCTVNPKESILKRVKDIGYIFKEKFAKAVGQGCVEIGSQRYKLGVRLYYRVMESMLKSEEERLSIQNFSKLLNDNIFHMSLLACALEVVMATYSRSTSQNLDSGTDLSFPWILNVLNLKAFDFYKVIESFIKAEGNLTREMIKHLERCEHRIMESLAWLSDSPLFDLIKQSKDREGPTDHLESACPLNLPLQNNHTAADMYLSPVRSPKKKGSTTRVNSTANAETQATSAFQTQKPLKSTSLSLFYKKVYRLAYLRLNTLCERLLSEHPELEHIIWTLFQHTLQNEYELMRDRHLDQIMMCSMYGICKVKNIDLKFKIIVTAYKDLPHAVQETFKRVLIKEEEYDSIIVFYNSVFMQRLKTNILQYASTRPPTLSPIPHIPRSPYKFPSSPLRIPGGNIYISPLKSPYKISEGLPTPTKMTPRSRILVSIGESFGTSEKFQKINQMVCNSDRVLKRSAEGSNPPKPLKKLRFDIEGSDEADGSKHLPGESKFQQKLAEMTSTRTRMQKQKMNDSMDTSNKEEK
Briefly: glutathione-agarose pull-down from HT1080 cell extract with 4 ug GST-RIZ; anti-Rb immunoblot. In general terms: In western blotting, separated proteins are transferred to a membrane and probed.
Description: The cells were grown in DMEM supplemented with 100 fetal calf serum. Cells were lysed in ELB buffer (50 mM HEPES, pH 7.5, 250 mM NaCl, 0.1% NP-40) supplemented with 5 mM EDTA, 50 mM NaF, 1 mM Na orthovanadate, 1 mM of DTT, aprotinin, leupeptin, and PMSF. The lysate was cleared of cell debris by centrifugation at 12,000 rpm for 10 min in a microfuge.

For another experiment, the target named is T4, 35S-RIZ (1-575)^307-Gly (rat, UniProt Q63755 1-575, 35S label).
T4 construct: In vitro transcribed/translated; also called glycine mutant; cr2 mutant
T4 sequence: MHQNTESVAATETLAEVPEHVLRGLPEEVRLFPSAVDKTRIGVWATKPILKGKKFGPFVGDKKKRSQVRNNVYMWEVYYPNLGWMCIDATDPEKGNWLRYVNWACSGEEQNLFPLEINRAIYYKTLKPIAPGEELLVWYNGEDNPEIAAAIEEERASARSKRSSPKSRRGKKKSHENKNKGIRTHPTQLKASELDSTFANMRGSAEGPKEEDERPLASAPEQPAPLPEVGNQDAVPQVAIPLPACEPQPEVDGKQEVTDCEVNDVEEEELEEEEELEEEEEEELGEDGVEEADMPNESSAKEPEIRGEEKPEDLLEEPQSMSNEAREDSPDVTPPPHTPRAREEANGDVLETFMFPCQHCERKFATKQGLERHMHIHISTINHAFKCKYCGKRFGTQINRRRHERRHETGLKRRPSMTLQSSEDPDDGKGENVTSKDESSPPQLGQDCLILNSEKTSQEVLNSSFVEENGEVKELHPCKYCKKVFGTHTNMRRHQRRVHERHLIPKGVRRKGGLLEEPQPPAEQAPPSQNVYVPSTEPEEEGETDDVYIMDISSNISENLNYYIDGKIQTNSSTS
The experiment in a line: immunoprecipitation with anti-Rb antiserum, SDS-PAGE, autoradiography.

Chain of E1A 12S (P03255 1-139, added parts left off): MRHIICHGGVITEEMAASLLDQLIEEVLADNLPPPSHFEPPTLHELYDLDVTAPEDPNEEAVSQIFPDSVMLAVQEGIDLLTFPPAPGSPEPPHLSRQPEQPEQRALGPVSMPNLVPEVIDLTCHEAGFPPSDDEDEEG
Description for E1A 12S: To investigate this relationship further, the anti-RIZ antiserum raised against the GST-RIZ (245-573) fusion protein containing the cr2, ce1 and part of the cr1 motifs, was tested for cross reactivity with E1A. For these experiments, E1A was labeled with ^35S-methionine during in vitro transcription/translation using methods described above.
To further verify binding between anti-RIZ and E1A, the cross reactive antibodies from the anti-RIZ antiserum were purified by affinity chromatography on a column containing E1A 12S protein.
E1A 12S, truncated at residue 223 (E1A223) was produced by generating a PCR fragment of E1A using an upstream SP6 primer (Stratagene) a downstream E1A primer 5′-[sequence] […] The resulting PCR fragment was cloned into pCRSK+, which was used to direct the synthesis of the mutant E1A 12S protein by SP6 in vitro transcription/translation. The full length E1A 12S (E1A243) was produced from vector pGEM1Ad5E1A12S by in vitro transcription/translation as described above for the other vectors.
The regions of RIZ and E1A 12S that contain the ce1 epitope show significant amino acid sequence homology (FIG. 2A). The sequence ^312EDLLEE (SEQ ID NO: 20) in RIZ and the sequence ^224EDLLNE (SEQ ID NO: 21) in E1A are likely sites for the ce1 epitope. To evaluate this possibility, an 11 amino acid peptide encompassing residues 310-320 in RIZ (ce1 peptide) [sequence] […]

As for poly-L-lysine, the “inhibition of binding of p56EERb to RIZ-expressing clones” value at p56EERb was “maintained their reactivity”.
Consider KPEDLLEEPQS [ce1 peptide], for which the “inhibition of binding between anti-ce1 antibody and 35S-RIZ318” value with RIZ is “inhibited binding”. In addition, the “inhibition of binding between anti-ce1 antibody and 35S-E1A 12S (E1A243)” value with E1A 12S is reported as “inhibited binding”.

B1: purified rat RIZ (a.a. position 215-462) fused C-terminal to glutathionine S-transferase (GST) (other)
chain: PLASAPEQPAPLPEVGNQDAVPQVAIPLPACEPQPEVDGKQEVTDCEVNDVEEEELEEEEELEEEEEEELGEDGVEEADMPNESSAKEPEIRCEEKPEDLLEEPQSMSNEAREDSPDVTPPPHTPRAREEANGDVLETFMFPCQHCERKFATKQGLERHMHIHISTINHAFKCKYCGKRFGTQINRRRHERRHETGLKRRPSMTLQSSEDPDDGKGENVTSKDESSPPQLGQDCLILNSEKTSQEVLN
notes: not shown: glutathione S-transferase
For B1, the binding result is “no binding” in experiment [1] and “binds” in experiment [2].

B2: 56 kD fragment of Rb produced by bacterial expression from p56Rb plasmid (other, UniProt P06400 379-928, looked up)
chain: T1 sequence (P06400 379-928)
notes: range 379-928; Expressed in E. coli; also called 56 kD Rb
As for B2, the binding result with 35S-RIZ (1-575)^307-Gly is reported as “no binding (tested: 33 nM Rb)”.
